Patent US20160298120A1 (CHILDREN S HOSPITAL OF PHILADELPHIA, published 2016)

What was measured:
HAT1 = biological target: T1, HAT1 (UniProt O14929 2-419, limits assumed); experiment: co-immunoprecipitation from cell lysates, blot probed with anti-IRF1
T1 construct: Tested by co-immunoprecipitation with IRF1; no association
T1 sequence (looked up): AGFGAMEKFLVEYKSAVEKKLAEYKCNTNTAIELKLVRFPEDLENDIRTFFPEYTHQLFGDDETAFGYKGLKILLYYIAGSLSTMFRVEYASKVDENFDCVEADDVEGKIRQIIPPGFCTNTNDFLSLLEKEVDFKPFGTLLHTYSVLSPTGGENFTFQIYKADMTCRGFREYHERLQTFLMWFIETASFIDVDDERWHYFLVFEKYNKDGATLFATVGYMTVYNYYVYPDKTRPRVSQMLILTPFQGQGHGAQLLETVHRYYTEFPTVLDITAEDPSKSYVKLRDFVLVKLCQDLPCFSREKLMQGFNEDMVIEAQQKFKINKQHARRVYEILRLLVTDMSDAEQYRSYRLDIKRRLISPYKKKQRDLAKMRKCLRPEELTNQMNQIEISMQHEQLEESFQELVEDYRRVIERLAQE

ATF2 = biological target: T2, ATF2 (UniProt P15336 1-505, limits assumed); experiment: as above
T2 construct: Tested by co-immunoprecipitation with IRF1; no association
T2 sequence (looked up): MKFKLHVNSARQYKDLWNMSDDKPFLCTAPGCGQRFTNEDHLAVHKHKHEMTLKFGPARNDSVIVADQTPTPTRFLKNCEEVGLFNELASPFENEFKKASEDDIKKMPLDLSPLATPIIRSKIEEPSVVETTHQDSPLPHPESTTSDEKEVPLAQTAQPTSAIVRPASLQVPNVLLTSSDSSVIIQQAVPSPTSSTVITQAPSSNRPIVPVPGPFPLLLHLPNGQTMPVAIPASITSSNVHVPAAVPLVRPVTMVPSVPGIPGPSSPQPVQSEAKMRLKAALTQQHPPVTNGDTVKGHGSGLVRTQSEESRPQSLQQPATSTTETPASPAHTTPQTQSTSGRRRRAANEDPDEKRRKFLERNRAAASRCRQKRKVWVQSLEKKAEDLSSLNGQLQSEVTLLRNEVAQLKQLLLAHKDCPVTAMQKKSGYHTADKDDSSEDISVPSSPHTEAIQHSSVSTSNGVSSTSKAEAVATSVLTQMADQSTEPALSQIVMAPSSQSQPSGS

B1: Interferon regulatory factor 1 (IRF1) (other, UniProt P10914 1-325, looked up)
chain: MPITRMRMRPWLEMQINSNQIPGLIWINKEEMIFQIPWKHAAKHGWDINKDACLFRSWAIHTGRYKAGEKEPDPKTWKANFRCAMNSLPDIEEVKDQSRNKGSSAVRVYRMLPPLTKNQRKERKSKSSRDAKSKAKRKSCGDSSPDTFSDGLSSSTLPDDHSSYTVPGYMQDLEVEQALTPALSPCAVSSTLPDWHIPVEVVPDSTSDLYNFQVSPMPSTSEATTDEDEEGKLPEDIMKLLEQSEWQPTNVDGKGYLLNEPGVQPTSVYGDFSCKEEPEIDSPGGDIGLSLQRVFTDLKNMDATWLDSLLTPVRLPSIQAIPCAP
notes: Endogenous protein from MonoMac6 lysates, detected with anti-IRF1 on the blot after co-immunoprecipitation
binding result (HAT1): no binding
binding result (ATF2): no binding
